16 molecules from patent publication US20250136682A1 (ACADEMIA SINICA, published 2025) can be followed below.

Assay [1] has as its target T1, human Siglec-3 (CD33) on cells (human, UniProt P20138 18-364).
T1 construct: whole, on cells; also called human endogenous or exogenous Siglec-3
The experiment in a line: flow cytometry, APC-conjugated antibody titrated on human monocytes (endogenous Siglec-3). On the procedure:
(§1) For establishment of titration curves, human monocytes and moDCs (3×10⁴) were incubated with the indicated concentrations of the APC-conjugated anti-Siglec-3 antibodies 4H3-3A, 10C8, as well as hIgG1 control, and analyzed by a flow cytometry instrument (FACSVerse; BD Biosciences). Mean fluorescence intensity (MFI) was analyzed by a software FlowJo (TreeStar, Inc.).

Assay [2] concerns the target T1, human Siglec-3 (CD33) on cells. The assay can be described thus: flow cytometry on moDCs (data not shown).
The target is the same in assay [3]. The experiment in a line: flow cytometry, APC-conjugated antibody titrated on human monocyte-derived dendritic cells (endogenous Siglec-3). On the procedure:
as §1

Assay [4] deals with T2, mouse Siglec-3 expressed in HEK-293T cells (mouse, UniProt Q63994 17-403).
T2 construct: whole, on cells
T2 sequence (looked up): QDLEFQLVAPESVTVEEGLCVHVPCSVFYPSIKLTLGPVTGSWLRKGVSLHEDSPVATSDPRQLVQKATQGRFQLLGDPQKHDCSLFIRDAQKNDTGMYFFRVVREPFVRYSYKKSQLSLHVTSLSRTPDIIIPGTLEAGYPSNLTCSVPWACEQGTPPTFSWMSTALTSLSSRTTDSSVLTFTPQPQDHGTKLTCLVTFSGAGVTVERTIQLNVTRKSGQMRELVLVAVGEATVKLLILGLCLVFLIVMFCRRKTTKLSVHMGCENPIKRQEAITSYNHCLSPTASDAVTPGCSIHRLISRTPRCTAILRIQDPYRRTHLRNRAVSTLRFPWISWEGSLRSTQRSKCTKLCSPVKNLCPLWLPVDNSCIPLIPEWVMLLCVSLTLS
The experiment in a line: flow cytometry, antibody titrated on HEK-293T cells expressing exogenous mouse Siglec-3.

Assay [5] has as its target T3, human CD33.Fc (recombinant extracellular domain of human Siglec-3 fused with Fc portion of hIgG1) (human, UniProt P20138 18-259).
T3 construct: extracellular domain; also called Siglec-3.Fc; not shown: Fc portion of human IgG1
The assay can be described thus: SPR (BIAcore 2000), human CD33.Fc immobilized on CM5 chip. On the procedure: Human IgG1 was first mobilized on channel one of a CM5 chip as the blank to determine the bulk effect of injection itself, whereas human CD33.Fc were immobilized on channel two for analysis of its kinetic interaction with wild various clones of anti-CD33 mAbs, respectively. The interaction between […] and anti-CD33 mAbs was determined by surface plasmon resonance using a Biacore instrument (BIAcore 2000).

T3 sequence (P20138 18-259): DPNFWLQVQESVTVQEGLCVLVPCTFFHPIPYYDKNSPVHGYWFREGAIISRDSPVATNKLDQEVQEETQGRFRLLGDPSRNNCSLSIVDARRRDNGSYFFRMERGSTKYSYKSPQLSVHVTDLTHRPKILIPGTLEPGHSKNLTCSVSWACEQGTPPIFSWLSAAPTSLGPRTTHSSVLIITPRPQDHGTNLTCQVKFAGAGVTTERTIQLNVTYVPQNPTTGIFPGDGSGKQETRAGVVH
T1 sequence (P20138 18-364): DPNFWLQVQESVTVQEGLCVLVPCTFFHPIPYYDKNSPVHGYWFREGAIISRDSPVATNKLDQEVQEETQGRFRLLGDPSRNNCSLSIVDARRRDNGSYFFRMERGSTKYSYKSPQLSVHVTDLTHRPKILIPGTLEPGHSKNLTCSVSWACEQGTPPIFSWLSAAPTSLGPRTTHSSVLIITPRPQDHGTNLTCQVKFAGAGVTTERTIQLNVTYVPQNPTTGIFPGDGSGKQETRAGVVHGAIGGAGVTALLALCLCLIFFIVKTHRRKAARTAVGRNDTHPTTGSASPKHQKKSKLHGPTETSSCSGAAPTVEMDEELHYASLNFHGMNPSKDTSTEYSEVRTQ

B1: anti-Siglec-3 antibody 10C8 (antibody, V domains shown)
VH: EVQLVESGGGLVQPGGSLRLSCAASGFTINNGWIHWVRQAPGKGLEWVAGIGPYGGSTFYADSVKGRFTISADTSKNTAYLQMNSLRAEDTAVYYCSRFIGSYSHMDYWGQGTLVTVSS
VL: DIQMTQSPSSLSASVGDRVTITCRASQDVYYYVAWYQQKPGKAPKLLISSAGGLYSGVPSRFSGSGSGTDFTLTISSLQPEDFATYYCQQYFNFPLTFGQGTKVEIKR
For B1, in assay [1], the “EC50 (read off the curve)” value was approximately 200 nM.

B2: anti-Siglec-3 antibody S3H1-85 reformatted into human IgG1 or IgG4 (antibody, V domains shown)
VH: VQLVESGGGLVQPGGSLRLSCAASGFTIGSGWIHWVRQAPGKGLEWVAGIGPYGGYTYYADSVKGRFTISADTSKNTAYLQMNSLRAEDTAVYYCARFNDHWDLWMDYWGQGTLVTVSS
VL: DIQMTQSPSSLSASVGDRVTITCRASQDVYGYVAWYQQKPGKAPKLLISYTPGLYSGVPSRFSGSGSGTDFTLTISSLQPEDFATYYCQQYYDFPITFGQGTKVEIKR
notes: also called 1S3H1-85; 4S3H1-85
As for B2, the binding result in assay [2] is “binds”.

B3: anti-Siglec-3 antibody H3-7G reformatted into human IgG1 or IgG4 (antibody, V domains shown)
VH: VQLVESGGGLVQPGGSLRLSCAASGFTIDDGFIHWVRQAPGKGLEWVAGIGPYGGYTYYADSVKGRFTISADTSKNTAYLQMNSLRAEDTAVYYCARFRDDKPQMMDYWGQGTLVTVSS
VL: DIQMTQSPSSLSASVGDRVTITCRASQDVYGYVAWYQQKPGKAPKLLISYTPGLYSGVPSRFSGSGSGTDFTLTISSLQPEDFATYYCQQYYDFPITFGQGTKVEIKR
notes: also called 1H3-7G; 4H3-7G
On to B3, for which the binding result in assay [2] is “binds”.

B4: anti-Siglec-3 antibody H3-10F reformatted into human IgG1 or IgG4 (antibody, V domains shown)
VH: VQLVESGGGLVQPGGSLRLSCAASGFTIDDGFIHWVRQAPGKGLEWVAGIGPYGGYTYYADSVKGRFTISADTSKNTAYLQMNSLRAEDTAVYYCARFATHDQPLMDYWGQGTLVTVSS
VL: DIQMTQSPSSLSASVGDRVTITCRASQDVYGYVAWYQQKPGKAPKLLISYTPGLYSGVPSRFSGSGSGTDFTLTISSLQPEDFATYYCQQYYDFPITFGQGTKVEIKR
notes: also called 1H3-10F; 4H3-10F
B4: the binding result in assay [2] is given as “binds”.

B5: anti-Siglec-3 antibody S3H2-8 reformatted into human IgG1 or IgG4 (antibody, V domains shown)
VH: VQLVESGGGLVQPGGSLRLSCAASGFTIDDGFIHWVRQAPGKGLEWVAAIKPRQGDTSYADSVKGRFTISADTSKNTAYLQMNSLRAEDTAVYYCARFNDHWDLWMDYWGQGTLVTVSS
VL: DIQMTQSPSSLSASVGDRVTITCRASQDVYGYVAWYQQKPGKAPKLLISYTPGLYSGVPSRFSGSGSGTDFTLTISSLQPEDFATYYCQQYYDFPITFGQGTKVEIKR
notes: also called 1S3H2-8; 4S3H2-8
In the case of B5, the binding result in assay [2] is “binds”.

B6: anti-Siglec-3 antibody S3H1-29 reformatted into human IgG1 or IgG4 (antibody, V domains shown)
VH: VQLVESGGGLVQPGGSLRLSCAASGFTIHGSWIHWVRQAPGKGLEWVAGIGPYGGYTYYADSVKGRFTISADTSKNTAYLQMNSLRAEDTAVYYCARFNDHQDLWMDYWGQGTLVTVSS
VL: DIQMTQSPSSLSASVGDRVTITCRASQDVYGYVAWYQQKPGKAPKLLISYTPGLYSGVPSRFSGSGSGTDFTLTISSLQPEDFATYYCQQYYDFPITFGQGTKVEIKR
notes: also called 1S3H1-29; 4S3H1-29
Regarding B6, the binding result in assay [2] is “binds”.

B7: anti-Siglec-3 antibody S3PL3-46 reformatted into human IgG1 or IgG4 (antibody, V domains shown)
VH: VQLVESGGGLVQPGGSLRLSCAASGFTIDDGFIHWVRQAPGKGLEWVAGIGPYGGYTYYADSVKGRFTISADTSKNTAYLQMNSLRAEDTAVYYCARFNDHWDLWMDYWGQGTLVTVSS
VL: DIQMTQSPSSLSASVGDRVTITCRASQDVYGYVAWYQQKPGKAPKLLISYTPGLYSGVPSRFSGSGSGTDFTLTISSLQPEDFATYYCQQYSRMPITFGQGTKVEIKR
notes: also called 1S3PL3-46; 4S3PL3-46
Consider B7, for which the binding result in assay [2] is listed as “binds”.

B8: anti-Siglec-3 antibody S3H2-12 reformatted into human IgG1 or IgG4 (antibody, V domains shown)
VH: VQLVESGGGLVQPGGSLRLSCAASGFTIDDGFIHWVRQAPGKGLEWVATISPNTGHTNYADSVKGRFTISADTSKNTAYLQMNSLRAEDTAVYYCARFNDHWDLWMDYWGQGTLVTVSS
VL: DIQMTQSPSSLSASVGDRVTITCRASQDVYGYVAWYQQKPGKAPKLLISYTPGLYSGVPSRFSGSGSGTDFTLTISSLQPEDFATYYCQQYYDFPITFGQGTKVEIKR
notes: also called 1S3H2-12; 4S3H2-12
B8: the binding result in assay [2] is listed as “binds”.

B9: anti-Siglec-3 antibody S3H1-76 reformatted into human IgG1 or IgG4 (antibody, V domains shown)
VH: VQLVESGGGLVQPGGSLRLSCAASGFTISSSYIHWVRQAPGKGLEWVAGIGPYGGYTYYADSVKGRFTISADTSKNTAYLQMNSLRAEDTAVYYCARFNDHWDLWMDYWGQGTLVTVSS
VL: DIQMTQSPSSLSASVGDRVTITCRASQDVYGYVAWYQQKPGKAPKLLISYTPGLYSGVPSRFSGSGSGTDFTLTISSLQPEDFATYYCQQYYDFPITFGQGTKVEIKR
notes: also called 1S3H1-76; 4S3H1-76
B9: in assay [2], the binding result was “binds”.

B10: anti-Siglec-3 antibody S3H1-74 reformatted into human IgG1 or IgG4 (antibody, V domains shown)
VH: VQLVESGGGLVQPGGSLRLSCAASGFTIHGSWIHWVRQAPGKGLEWVAGIGPYGGYTYYADSVKGRFTISADTSKNTAYLQMNSLRAEDTAVYYCARFNDHWDLWMDYWGQGTLVTVSS
VL: DIQMTQSPSSLSASVGDRVTITCRASQDVYGYVAWYQQKPGKAPKLLISYTPGLYSGVPSRFSGSGSGTDFTLTISSLQPEDFATYYCQQYYDFPITFGQGTKVEIKR
notes: also called 1S3H1-74; 4S3H1-74
With B10, the binding result in assay [2] is “binds”.

B11: anti-Siglec-3 antibody H3-10E reformatted into human IgG1 or IgG4 (antibody, V domains shown)
VH: VQLVESGGGLVQPGGSLRLSCAASGFTIDDGFIHWVRQAPGKGLEWVAGIGPYGGYTYYADSVKGRFTISADTSKNTAYLQMNSLRAEDTAVYYCARFQNSPTKTMDYWGQGTLVTVSS
VL: DIQMTQSPSSLSASVGDRVTITCRASQDVYGYVAWYQQKPGKAPKLLISYTPGLYSGVPSRFSGSGSGTDFTLTISSLQPEDFATYYCQQYYDFPITFGQGTKVEIKR
notes: also called 1H3-10E; 4H3-10E
Consider B11, for which the binding result in assay [2] is given as “binds”.

B12: anti-Siglec-3 antibody H3-8F reformatted into human IgG1 or IgG4 (antibody, V domains shown)
VH: VQLVESGGGLVQPGGSLRLSCAASGFTIDDGFIHWVRQAPGKGLEWVAGIGPYGGYTYYADSVKGRFTISADTSKNTAYLQMNSLRAEDTAVYYCARFRDTQSQTMDYWGQGTLVTVSS
VL: DIQMTQSPSSLSASVGDRVTITCRASQDVYGYVAWYQQKPGKAPKLLISYTPGLYSGVPSRFSGSGSGTDFTLTISSLQPEDFATYYCQQYYDFPITFGQGTKVEIKR
notes: also called 1H3-8F; 4H3-8F
With B12, the binding result in assay [2] is listed as “binds”.

B13: anti-Siglec-3 antibody H3-9E reformatted into human IgG1 or IgG4 (antibody, V domains shown)
VH: VQLVESGGGLVQPGGSLRLSCAASGFTIDDGFIHWVRQAPGKGLEWVAGIGPYGGYTYYADSVKGRFTISADTSKNTAYLQMNSLRAEDTAVYYCARFGHPPYDYMDYWGQGTLVTVSS
VL: DIQMTQSPSSLSASVGDRVTITCRASQDVYGYVAWYQQKPGKAPKLLISYTPGLYSGVPSRFSGSGSGTDFTLTISSLQPEDFATYYCQQYYDFPITFGQGTKVEIKR
notes: also called 1H3-9E; 4H3-9E
Consider B13, for which the binding result in assay [2] is listed as “binds”.

B14: anti-Siglec-3 antibody S3H2-10 reformatted into human IgG1 or IgG4 (antibody, V domains shown)
VH: VQLVESGGGLVQPGGSLRLSCAASGFTIDDGFIHWVRQAPGKGLEWVAAIPPLQGKTYYADSVKGRFTISADTSKNTAYLQMNSLRAEDTAVYYCARFNDHWDLWMDYWGQGTLVTVSS
VL: DIQMTQSPSSLSASVGDRVTITCRASQDVYGYVAWYQQKPGKAPKLLISYTPGLYSGVPSRFSGSGSGTDFTLTISSLQPEDFATYYCQQYYDFPITFGQGTKVEIKR
notes: also called 1S3H2-10; 4S3H2-10
Take B14: in assay [2], the binding result is reported as “binds”.

B15: 1H3-3A (antibody, human IgG1, kappa)
light chain: DGTDIQMTQSPSSLSASVGDRVTITCRASQDVYGYVAWYQQKPGKAPKLLISYTPGLYSGVPSRFSGSGSGTDFTLTISSLQPEDFATYYCQQYYDFPITFGQGTKVEIKRTVAAPSVFIFPPSDEQLKSGTASVVCLLNNFYPREAKVQWKVDNALQSGNSQESVTEQDSKDSTYSLSSTLTLSKADYEKHKVYACEVTHQGLSSPVTKSFNRGEC
heavy chain: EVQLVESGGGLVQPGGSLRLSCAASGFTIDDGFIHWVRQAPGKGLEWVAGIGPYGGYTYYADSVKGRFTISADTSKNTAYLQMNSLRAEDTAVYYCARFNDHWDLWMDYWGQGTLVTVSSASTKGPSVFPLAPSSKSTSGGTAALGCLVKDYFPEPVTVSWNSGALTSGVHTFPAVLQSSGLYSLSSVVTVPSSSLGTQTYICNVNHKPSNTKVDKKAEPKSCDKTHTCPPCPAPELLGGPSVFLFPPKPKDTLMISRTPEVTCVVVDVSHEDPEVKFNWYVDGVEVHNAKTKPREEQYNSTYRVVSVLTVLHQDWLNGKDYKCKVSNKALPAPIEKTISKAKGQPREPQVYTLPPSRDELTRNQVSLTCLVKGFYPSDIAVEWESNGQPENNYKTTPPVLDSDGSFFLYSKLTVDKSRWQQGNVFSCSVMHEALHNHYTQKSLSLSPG
Consider B15, for which the “EC50 (read off the curve)” value in assay [1] is approximately 100 nM; in assay [3], approximately 30 nM.

B16: anti-Siglec-3 antibody 4H3-3A (scFv clone H3-3A reformatted into hIgG4) (antibody)
heavy: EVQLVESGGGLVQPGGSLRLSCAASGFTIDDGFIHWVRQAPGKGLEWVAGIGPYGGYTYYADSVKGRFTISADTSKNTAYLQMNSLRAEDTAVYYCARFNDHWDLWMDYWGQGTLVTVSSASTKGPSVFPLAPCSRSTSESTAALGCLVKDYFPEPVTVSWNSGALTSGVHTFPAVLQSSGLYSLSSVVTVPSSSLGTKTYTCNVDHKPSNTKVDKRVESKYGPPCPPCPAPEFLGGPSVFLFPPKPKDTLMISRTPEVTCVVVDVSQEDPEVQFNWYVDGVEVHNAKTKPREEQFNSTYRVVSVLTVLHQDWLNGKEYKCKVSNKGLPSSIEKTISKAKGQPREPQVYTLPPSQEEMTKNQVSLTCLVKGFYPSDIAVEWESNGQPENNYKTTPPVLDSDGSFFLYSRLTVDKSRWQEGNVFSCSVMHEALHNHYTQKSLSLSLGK
light: DGTDIQMTQSPSSLSASVGDRVTITCRASQDVYGYVAWYQQKPGKAPKLLISYTPGLYSGVPSRFSGSGSGTDFTLTISSLQPEDFATYYCQQYYDFPITFGQGTKVEIKRTVAAPSVFIFPPSDEQLKSGTASVVCLLNNFYPREAKVQWKVDNALQSGNSQESVTEQDSKDSTYSLSSTLTLSKADYEKHKVYACEVTHQGLSSPVTKSFNRGEC
notes: Human IgG4 format
As for B16, in assay [4], the binding result is on record as “no binding”. In addition, in assay [5], the Kd came to 8.88 nM, the koff was determined as 0.0373 s⁻¹ and the kon was 4.21e+06 M⁻¹ s⁻¹.
